Measured values: patent publication US20080241155A1 (Human Genome Sciences, published 2008)

Key:
[1] = target: T1, TRAIL (TNF-related apoptosis-inducing ligand), soluble (UniProt P50591 95-281, limits assumed); test: receptor-Fc / ligand co-precipitation, immunoblot
T1 construct: also called Apo-2 ligand; Apo-2L

Fas ligand = target: T2, Fas ligand (UniProt P48023 130-281, limits assumed); test: receptor-Fc / ligand co-precipitation, immunoblot
T2 construct: Detected by immunoblotting with an antibody to FasL (Pharmingen)
T2 sequence (looked up): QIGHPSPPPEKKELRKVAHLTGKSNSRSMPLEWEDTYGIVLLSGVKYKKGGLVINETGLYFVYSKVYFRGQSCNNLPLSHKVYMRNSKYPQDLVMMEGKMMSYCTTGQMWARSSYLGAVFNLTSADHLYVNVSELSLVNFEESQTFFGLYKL

[2] = target: T3, TNFα (tumor necrosis factor alpha) (UniProt P01375 77-233, limits assumed); test: co-precipitation from mixed conditioned media with protein G-Sepharose, immunoblot
T3 construct: also called TNF alpha
T3 sequence (P01375 77-233 limits assumed): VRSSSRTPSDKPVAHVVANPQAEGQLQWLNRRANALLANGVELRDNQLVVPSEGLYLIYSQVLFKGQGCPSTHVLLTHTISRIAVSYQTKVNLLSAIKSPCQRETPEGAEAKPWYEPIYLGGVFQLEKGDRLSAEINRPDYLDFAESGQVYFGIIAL

T1 sequence (P50591 95-281 limits assumed): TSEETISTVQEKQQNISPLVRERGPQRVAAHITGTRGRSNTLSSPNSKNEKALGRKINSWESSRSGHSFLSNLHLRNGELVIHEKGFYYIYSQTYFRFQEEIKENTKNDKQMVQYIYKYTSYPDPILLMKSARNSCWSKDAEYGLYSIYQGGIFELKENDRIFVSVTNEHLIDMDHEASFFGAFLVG

B1: TNFR1-Fc (extracellular domain of TNFR-1 expressed as an Fc fusion) (Fc fusion, UniProt P19438 30-211, looked up)
chain: LVPHLGDREKRDSVCPQGKYIHPQNNSICCTKCHKGTYLYNDCPGPGQDTDCRECESGSFTASENHLRHCLSCSKCRKEMGQVEISSCTVDRDTVCGCRKNQYRHYWSENLFQCFNCSLCLNGTVHLSCQEKQNTVCTCHAGFFLRENECVSCSNCKKSLECTKLCLPQIENVKGTEDSGTT
notes: extracellular domain; not shown: Fc portion of human IgG
B1: no binding [1].

B2: CD95-Fc (extracellular domain of CD-95 / Fas expressed as an Fc fusion) (Fc fusion, UniProt P25445 26-173, looked up)
chain: QVTDINSKGLELRKTVTTVETQNLEGLHHDGQFCHKPCPPGERKARDCTVNGDEPDCVPCQEGKEYTDKAHFSSKCRRCRLCDEGHGLEVEINCTRTQNTKCRCKPNFFCNSTVCEHCDPCTKCEHGIIKECTLTSNTKCKEEGSRSN
notes: extracellular domain; also called Fas-Fc; Fc-extracellular domain of Fas; not shown: Fc portion of human IgG
B2: no binding [1].

B3: DR4-Fc (soluble extracellular ligand binding domain of DR4, amino acids 110 to 239, fused to the Fc portion of human IgG) (Fc fusion)
chain: TIKLHDQSIGTQQWEHSPLGELCPPGSHRSERPGACNRCTEGVGYTNASNNLFACLPCTACKSDEEERSPCTTTRNTACQCKPGTFRNDNSAEMCRKCSTGCPRGMVKVKDCTPWSDIECVHKESGNGHN
notes: Cloned into a modified pCMV1FLAG vector for in-frame fusion with human IgG Fc and expressed in 293 cells; used as conditioned medium; also called soluble extracellular DR4-Fc fusion; Fc-extracellular domain of DR4; not shown: Fc portion of human immunoglobulin (IgG)
B3: no binding (Fas ligand); no binding [2].
